Columns and labels:
Assay in all cases: cell-based or functional assay
mini-plasmin (human) = mini-plasmin (human) (UniProt P00747)
micro-plasmin = micro-plasmin (UniProt P00747)
plasmin (human) = plasmin (human) (UniProt P00747)
[1] = target: delta-plasmin (human (recombinant deletion mutant of human plasminogen, made in E. coli)) (UniProt P00747)

inhibition rate (22° C., PBS, pH 7.4) (mini-plasmin (human))	inhibition rate (22° C., PBS, pH 7.4) (micro-plasmin)	inhibition rate (22° C., PBS, pH 7.4) (plasmin (human))	inhibition rate (22° C., PBS, pH 7.4) [1]	inhibition rate (22° C., PBS, pH 7.4; residual S-2251 activity) (mini-plasmin (human))	inhibition rate (22° C., PBS, pH 7.4; residual S-2251 activity) (micro-plasmin)	inhibition rate (second separate experiment; residual S-2251 activity) (micro-plasmin)	fold change of inhibition rate against micro-plasmin or mini-plasmin [1]	inhibition rate (22° C., PBS, pH 7.4; residual S-2251 activity) [1]	Binder
750000 M^-1s^-1	780000 M^-1s^-1	650000 M^-1s^-1	760000 M^-1s^-1	–	–	–	–	–	α2-macroglobulin (protein, UniProt P01023 24-1474, looked up) SVSGKPQYMVLVPSLLHTETTEKGCVLLSYLNETVTVSASLESVRGNRSLFTDLEAENDVLHCVAFAVPKSSSNEEVMFLTVQVKGPTQEFKKRTTVMVKNEDSLVFVQTDKSIYKPGQTVKFRVVSMDENFHPLNELIPLVYIQDPKGNRIAQWQSFQLEGGLKQFSFPLSSEPFQGSYKVVVQKKSGGRTEHPFTVEEFVLPKFEVQVTVPKIITILEEEMNVSVCGLYTYGKPVPGHVTVSICRKYSDASDCHGEDSQAFCEKFSGQLNSHGCFYQQVKTKVFQLKRKEYEMKLHTEAQIQEEGTVVELTGRQSSEITRTITKLSFVKVDSHFRQGIPFFGQVRLVDGKGVPIPNKVIFIRGNEANYYSNATTDEHGLVQFSINTTNVMGTSLTVRVNYKDRSPCYGYQWVSEEHEEAHHTAYLVFSPSKSFVHLEPMSHELPCGHTQTVQAHYILNGGTLLGLKKLSFYYLIMAKGGIVRTGTHGLLVKQEDMKGHFSISIPVKSDIAPVARLLIYAVLPTGDVIGDSAKYDVENCLANKVDLSFSPSQSLPASHAHLRVTAAPQSVCALRAVDQSVLLMKPDAELSASSVYNLLPEKDLTGFPGPLNDQDNEDCINRHNVYINGITYTPVSSTNEKDMYSFLEDMGLKAFTNSKIRKPKMCPQLQQYEMHGPEGLRVGFYESDVMGRGHARLVHVEEPHTETVRKYFPETWIWDLVVVNSAGVAEVGVTVPDTITEWKAGAFCLSEDAGLGISSTASLRAFQPFFVELTMPYSVIRGEAFTLKATVLNYLPKCIRVSVQLEASPAFLAVPVEKEQAPHCICANGRQTVSWAVTPKSLGNVNFTVSAEALESQELCGTEVPSVPEHGRKDTVIKPLLVEPEGLEKETTFNSLLCPSGGEVSEELSLKLPPNVVEESARASVSVLGDILGSAMQNTQNLLQMPYGCGEQNMVLFAPNIYVLDYLNETQQLTPEIKSKAIGYLNTGYQRQLNYKHYDGSYSTFGERYGRNQGNTWLTAFVLKTFAQARAYIFIDEAHITQALIWLSQRQKDNGCFRSSGSLLNNAIKGGVEDEVTLSAYITIALLEIPLTVTHPVVRNALFCLESAWKTAQEGDHGSHVYTKALLAYAFALAGNQDKRKEVLKSLNEEAVKKDNSVHWERPQKPKAPVGHFYEPQAPSAEVEMTSYVLLAYLTAQPAPTSEDLTSATNIVKWITKQQNAQGGFSSTQDTVVALHALSKYGAATFTRTGKAAQVTIQSSGTFSSKFQVDNNNRLLLQQVSLPELPGEYSMKVTGEGCVYLQTSLKYNILPEKEEFPFALGVQTLPQTCDEPKAHTSFQISLSVSYTGSRSASNMAIVDVKMVSGFIPLKPTVKMLERSNHVSRTEVSSNHVLIYLDKVSNQTLSLFFTVLQDVPVRDLKPAIVKVYDYYETDEFAIAEYNAPCSKDLGNA
–	–	–	–	240000 M^-1s^-1	180000 M^-1s^-1	310000 M⁻¹ s⁻¹	40 fold	1.1e+07 M^-1s^-1	α2-antiplasmin (protein, UniProt P08697 40-491, looked up) NQEQVSPLTLLKLGNQEPGGQTALKSPPGVCSRDPTPEQTHRLARAMMAFTADLFSLVAQTSTCPNLILSPLSVALALSHLALGAQNHTLQRLQQVLHAGSGPCLPHLLSRLCQDLGPGAFRLAARMYLQKGFPIKEDFLEQSEQLFGAKPVSLTGKQEDDLANINQWVKEATEGKIQEFLSGLPEDTVLLLLNAIHFQGFWRNKFDPSLTQRDSFHLDEQFTVPVEMMQARTYPLRWFLLEQPEIQVAHFPFKNNMSFVVLVPTHFEWNVSQVLANLSWDTLHPPLVWERPTKVRLPKLYLKHQMDLVATLSQLGLQELFQAPDLRGISEQSLVVSGVQHQSTLELSEVGVEAAAATSIAMSRMSLSSFSVNRPFLFFIFEDTTGLPLFVGSVRNPNPSAPRELKEQQDSPGNKDFLQSLKGFPRGDKLFGPDLKLVPPMEEDYPQFGSPK

— US20100304465A1
